Our source for the Kd values is article PMC12212138, “Crystal structure and mutagenesis of a nucleic acid–binding BRCT domain in human PARP4”.

One series addresses T1, PARP4 BRCT WT (human, UniProt Q9UKK3 1-100).
T1 sequence: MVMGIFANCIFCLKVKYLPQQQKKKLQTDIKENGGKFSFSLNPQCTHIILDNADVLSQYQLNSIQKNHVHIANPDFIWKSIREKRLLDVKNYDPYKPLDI
The experiment in a line: FP; 3 nM probe; FP: 50 mM Tris pH 7.5, 50 mM NaCl, 1 mM MgCl2, 0.05% NP40, 2 mM DTT, 5% glycerol, 25 ug/ml BSA, room temp 30 min; EMSA: 50 mM Tris pH 7.5, 50 mM NaCl, 4% Ficoll PM400, 0.05% NP40, 2 mM DTT, 0-18 uM protein, room temp 30 min, gel at 4 C. The note with it: protein: recombinant; tags: N-terminal His-SUMO removed by TEV; label: 5'-6-FAM; predicted intramolecular fold.

For series [1], the target named is T2, PARP4 BRCT-WGR-CAT WT (human, UniProt Q9UKK3 1-573).
T2 sequence: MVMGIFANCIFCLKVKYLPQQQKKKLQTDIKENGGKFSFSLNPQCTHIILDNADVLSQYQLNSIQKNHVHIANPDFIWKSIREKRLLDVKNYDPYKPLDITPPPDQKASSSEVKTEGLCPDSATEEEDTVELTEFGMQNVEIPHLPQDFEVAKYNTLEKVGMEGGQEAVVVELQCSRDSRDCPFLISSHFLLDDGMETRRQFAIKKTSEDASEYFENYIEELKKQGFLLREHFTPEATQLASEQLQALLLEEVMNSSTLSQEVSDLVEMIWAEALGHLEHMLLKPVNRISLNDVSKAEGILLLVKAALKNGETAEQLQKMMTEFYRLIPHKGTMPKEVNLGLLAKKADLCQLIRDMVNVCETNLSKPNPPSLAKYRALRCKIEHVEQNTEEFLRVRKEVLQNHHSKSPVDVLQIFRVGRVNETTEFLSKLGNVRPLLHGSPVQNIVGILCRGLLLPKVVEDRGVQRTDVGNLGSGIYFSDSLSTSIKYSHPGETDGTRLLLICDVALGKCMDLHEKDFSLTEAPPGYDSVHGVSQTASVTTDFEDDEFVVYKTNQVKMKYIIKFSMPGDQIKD
The experiment in a line: EMSA; 20 nM probe; FP: 50 mM Tris pH 7.5, 50 mM NaCl, 1 mM MgCl2, 0.05% NP40, 2 mM DTT, 5% glycerol, 25 ug/ml BSA, room temp 30 min; EMSA: 50 mM Tris pH 7.5, 50 mM NaCl, 4% Ficoll PM400, 0.05% NP40, 2 mM DTT, 0-18 uM protein, room temp 30 min, gel at 4 C. Conditions: protein: recombinant; tags: N-terminal His-SUMO removed by TEV; label: 5'-6-FAM; single strand, predicted fold.

The target in series [2] is T2, PARP4 BRCT-WGR-CAT WT. The experiment in a line: FP; 15 nM probe; FP: 50 mM Tris pH 7.5, 50 mM NaCl, 1 mM MgCl2, 0.05% NP40, 2 mM DTT, 5% glycerol, 25 ug/ml BSA, room temp 30 min; EMSA: 50 mM Tris pH 7.5, 50 mM NaCl, 4% Ficoll PM400, 0.05% NP40, 2 mM DTT, 0-18 uM protein, room temp 30 min, gel at 4 C. Conditions: protein: recombinant, tags: N-terminal His-SUMO removed by TEV. A general note: A gel shift assay detects complexes by their altered migration in electrophoresis.

B1: vtRNA1-2 (structured_RNA)
RNA: GGCUGGCUUUAGCUCAGCGGUUACUUCGAGUACAUUGUAACCACCUCUCUGGGUGGUUCGAGACCCGCGGGUGCUUUCCAGCUCUUUU
Broadly, the Kd is the constant that tells how readily two partners part at equilibrium. With B1, the Kd with PARP4 BRCT WT was 20 ± 5 µM.

B2: vtRNA1-1 (structured_RNA)
RNA: GGCUGGCUUUAGCUCAGCGGUUACUUCGACAGUUCUUUAAUUGAAACAAGCAACCUGUCUGGGUUGUUCGAGACCCGCGGGCGCUCUCCAGUCCUUUU
In the case of B2, the Kd in the series with PARP4 BRCT WT was 13 ± 4 µM.

B3: Probe 2 (structured_RNA)
RNA: GUCAUCAAACCACCUCUCUGGGUUGUUCGAGAC
Take B3: the Kd with PARP4 BRCT-WGR-CAT WT [1] is 11 ± 3 µM; with PARP4 BRCT-WGR-CAT WT [2] (label: 5'-6-FAM, single strand, predicted fold), 44 ± 13 µM.

B4: Probe 1 (dsRNA)
RNA 1: GGCUGGCUUUAGCUCAGCGG
RNA 2: CCGCGGGCGCUCUCCAGCCCUCUU
Consider B4, for which the Kd with PARP4 BRCT-WGR-CAT WT [2] (label: 5'-6-FAM on strand 1, two-strand partial duplex) was found to be 25 ± 10 µM.
